Each block holds one substance with its values, some of them ahead of it.
Legend:
[1] = molecular target: E. coli MukB(G67C)-HaloTag (E. coli) (UniProt P22523); experiment: cross-linking; in vivo BMOE combinatorial cysteine cross-linking, cells grown to stationary phase; SDS-PAGE and in-gel fluorescence of MukB-HaloTag-TMR
[2] = molecular target: E. coli MukB(G67C)-HaloTag (E. coli) (UniProt P22523); experiment: cross-linking; in vivo BMOE cysteine cross-linking of E. coli cells in exponential phase, 10 min on ice in PBS; SDS-PAGE and in-gel fluorescence of MukB-HaloTag-TMR
[3] = molecular target: E. coli MukB(G67C, D1406A)-HaloTag (E. coli) (UniProt P22523); experiment: as above
[4] = molecular target: E. coli MukB(G67C, E1407Q)-HaloTag (E. coli) (UniProt P22523); experiment: as above
[5] = molecular target: E. coli MukB(G67C, R771C)-HaloTag with natural C730 (E. coli) (UniProt P22523); experiment: cross-linking; in vivo BMOE combinatorial cysteine cross-linking, cells grown to stationary phase; SDS-PAGE and in-gel fluorescence of MukB-HaloTag-TMR
[6] = molecular target: E. coli MukB(R771C)-HaloTag with natural C730 (E. coli) (UniProt P22523); experiment: as above

Substance: E. coli MukB(G67C)-HaloTag (from UniProt P22523 1-1486) (natural protein)
MukB species cross-linked at the heads [1]: 29%
cross-linked fraction [2]: 22%

Substance: E. coli MukB(R771C)-HaloTag with natural C730 (from UniProt P22523 1-1486) (natural protein)
cross-linking efficiency [6]: 62%

Results, then the substance that gave them:

cross-linked fraction [3]: 21%
Substance: E. coli MukB(G67C, D1406A)-HaloTag (from UniProt P22523 1-1486) (natural protein)

cross-linked fraction [4]: 30%
Substance: E. coli MukB(G67C, E1407Q)-HaloTag (from UniProt P22523 1-1486) (natural protein)

MukB species cross-linked at the heads [5]: 12%
Substance: E. coli MukB(G67C, R771C)-HaloTag with natural C730 (from UniProt P22523 1-1486) (natural protein)

Reference: publication PMC8669397
